Measurements from US20190062395A1 (MEDICENNA THERAPEUTICS, published 2019).

Biological target: T1, interleukin 2 receptor beta (IL-2Rβ) (UniProt P14784 27-240, limits assumed)
T1 construct: also called CD122
T1 sequence (looked up): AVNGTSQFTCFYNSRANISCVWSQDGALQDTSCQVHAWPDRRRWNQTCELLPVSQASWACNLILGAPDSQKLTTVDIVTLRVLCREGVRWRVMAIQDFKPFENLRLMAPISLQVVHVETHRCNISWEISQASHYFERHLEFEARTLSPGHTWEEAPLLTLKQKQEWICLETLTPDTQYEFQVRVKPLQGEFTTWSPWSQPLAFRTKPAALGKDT
Assay: method not stated; Kd column of the H9 substitution matrix; target not given

B1: H9 (IL-2 mutein having the amino acid substitutions L80F, R81D, L85V, I86V, and I92F, numbered in accordance with wild-type human IL-2 of SEQ ID NO:2) (ligand)
chain: APTSSSTKKTQLQLEHLLLDLQMILNGINNYKNPKLTRMLTFKFYMPKKATELKHLQCLEEELKPLEEVLNLAQSKNFHFDPRDVVSNINVFVLELKGSETTFMCEYADETATIVEFLNRWITFCQSIISTLT
notes: also called IL-2 superkine
- Kd: 1.3 nM
